Square brackets hold non-standard residues; d marks the D form. Ends that are not written are not given here. Cit = NC(=O)NCCC[C@H](N)C(=O)O
Assays:
Assay in all cases: in vitro binding assay to recombinant MHC class II protein
[1] = molecular target: MHC class II of the HLA DRB1 0401 genotype (Homo sapiens, UniProt P01903+P01911, A100K/A169T/F76Y/I96L/K127E/L162R/M171V/N62H/P40V/Q125Y/R42H/S133A/S149N/S66Y/V115G/V209L/W38E); design: key to Binds to 0401: *0101: the listing of the allele in the column for the allele indicates binding; *0401: “0401” in the “Binds to 0401” column indicates binding of the peptide to MHC class II of the HLA DRB1 0401 genotype; *0404: the listing of the allele in the column for the allele indicates binding; *0405: the listing of the allele in the column for the allele indicates binding; *0408: the listing of the allele in the column for the allele indicates binding; *1001: the listing of the allele in the column for the allele indicates binding; “no” or no data indicates no binding to a protein of that genotype; conditions: recombinant MHC class II, HLA DRB1 0401
Source text: (§1) Binding of the peptides to recombinant MHC class II protein of various alleles has been confirmed in an in vitro binding assay and the results are shown in Tables 1, 2 and 3. In table 1, 2 and 3, the listing of the allele in the column for the allele indicates binding. Thus “0401” in the “Binds to 0401” column indicates binding of the peptide to MHC class II of the HLA DRB1 0401 genotype. “no” or no data indicates no binding to a protein of that genotype. Empty boxes indicate no binding or that binding has not been determined. In the tables it is also indicated if the peptide has a citrulline residue, where “yes” indicates the presence of a citrulline residue and “no” indicates the absence of a citrulline residue.
Thus for these peptides no binding to HLA-DR0401 was observed when citrulline was exchanged with the original amino acid arginine (Table 4). No binding of the citrullinated peptides was seen to HLA-DR 03 or 02 variants.

[2] = molecular target: MHC class II of the HLA DRB1 0404 genotype (Homo sapiens, UniProt P01903+P01911, A100R/A169T/F76Y/I96L/K127E/L162R/M171V/N62H/P40V/Q125Y/R42H/S133A/S149N/S66Y/V209L/W38E); design: key: *0101: the listing of the allele in the column for the allele indicates binding; *0401: “0401” in the “Binds to 0401” column indicates binding of the peptide to MHC class II of the HLA DRB1 0401 genotype; *0404: the listing of the allele in the column for the allele indicates binding; *0405: the listing of the allele in the column for the allele indicates binding; *0408: the listing of the allele in the column for the allele indicates binding; *1001: the listing of the allele in the column for the allele indicates binding; “no” or no data indicates no binding to a protein of that genotype
Source text: as §1

[3] = molecular target: MHC class II of the HLA DRB1 0405 genotype (Homo sapiens, UniProt P01903+P01911, A100R/A169T/D86S/F76Y/I96L/K127E/L162R/M171V/N62H/P40V/Q125Y/R42H/S133A/S149N/S66Y/V115G/V209L/W38E); design: key: *0101: the listing of the allele in the column for the allele indicates binding; *0401: “0401” in the “Binds to 0401” column indicates binding of the peptide to MHC class II of the HLA DRB1 0401 genotype; *0404: the listing of the allele in the column for the allele indicates binding; *0405: the listing of the allele in the column for the allele indicates binding; *0408: the listing of the allele in the column for the allele indicates binding; *1001: the listing of the allele in the column for the allele indicates binding; “no” or no data indicates no binding to a protein of that genotype
Source text: as §1

[4] = molecular target: MHC class II of the HLA DRB1 0101 genotype (Homo sapiens, UniProt P01903+P01911, A100R/D57E/F55L/F60I/F76Y/I96L/L162R/M171V/P40L/Q125E/R42F/V115G/Y59C); design: key: *0101: the listing of the allele in the column for the allele indicates binding; *0401: “0401” in the “Binds to 0401” column indicates binding of the peptide to MHC class II of the HLA DRB1 0401 genotype; *0404: the listing of the allele in the column for the allele indicates binding; *0405: the listing of the allele in the column for the allele indicates binding; *0408: the listing of the allele in the column for the allele indicates binding; *1001: the listing of the allele in the column for the allele indicates binding; “no” or no data indicates no binding to a protein of that genotype
Source text: as §1

Row | Binds to 0401 [1] | Binds to 0404 [2] | Binds to 0405 [3] | Binds to 0101 [4] | Substance
1 | *0401 | *0404 |  |  | type II collagen 195: human collagen type II peptide, not citrullinated (PGLQGMPGERGAAGI; listed as Homo sapiens)
2 | *0401 |  |  |  | vimentin 20: human vimentin peptide, not citrullinated (FKNTRTNEKVELQEL; listed as Homo sapiens)
3 | *0401 |  |  |  | vimentin 59: human vimentin peptide, not citrullinated (YKSKFADLSEAANRN; listed as Homo sapiens)
4 | *0401 |  |  |  | vimentin 145: citrullinated human vimentin peptide (STEY[Cit][Cit]QVQSLTCEV; listed as Homo sapiens)
5 |  |  | *0405 |  | type II collagen 272: human collagen type II peptide, not citrullinated (GHRGFTGLQGLPGPP; listed as Homo sapiens)
6 |  | *0404 |  |  | vimentin 44: human vimentin peptide, not citrullinated (ARLDLERKVESLQEE; listed as Homo sapiens)
7 | *0401 |  |  | no | vimentin 16: human vimentin peptide, not citrullinated (GVRLLQDSVDFSLAD; listed as Homo sapiens)
8 | no | *0404 | *0405 |  | type II collagen 241: human collagen type II peptide, not citrullinated (LAGQRGIVGLPGQRG; listed as Homo sapiens)
9 |  | *0404 |  |  | type II collagen 166: human collagen type II peptide, not citrullinated (VMGFPGPKGANGEPG; listed as Homo sapiens)
10 | *0401 |  | *0405 |  | vimentin 98: citrullinated human vimentin peptide (SS[Cit]SYVTTST[Cit]TYSL; listed as Homo sapiens)
11 |  |  |  | *0101 | vimentin 132: citrullinated human vimentin peptide (F[Cit]QDVDNASLA[Cit]LDL; listed as Homo sapiens)
12 | *0401 | *0404 |  | no | vimentin 93: citrullinated human vimentin peptide (MST[Cit]SVSSSSY[Cit][Cit]MF; listed as Homo sapiens)
13 |  | *0404 |  |  | vimentin 14: human vimentin peptide, not citrullinated (SAVRLRSSVPGVRLL; listed as Homo sapiens)
14 |  | *0404 |  | *0101 | vimentin 32: human vimentin peptide, not citrullinated (ELRRQVDQLTNDKAR; listed as Homo sapiens)
15 |  | no |  | *0101 | vimentin 27: human vimentin peptide, not citrullinated (LLAELEQLKGQGKSR; listed as Homo sapiens)
16 | *0401 |  |  | *0101 | type II collagen 138: human collagen type II peptide, not citrullinated (AGFKGEQGPKGEPGP; listed as Homo sapiens)
17 | no |  |  | *0101 | vimentin 13: human vimentin peptide, not citrullinated (YATRSSAVRLRSSVP; listed as Homo sapiens)

Row | Binds to 0401 [1] | Binds to 0404 [2] | Binds to 0405 [3] | Binds to 0101 [4] | Substance
18 |  | *0404 |  |  | type II collagen 224: human collagen type II peptide, not citrullinated (GPPGATGFPGAAGRV; listed as Homo sapiens)
19 | *0401 |  |  |  | vimentin 150: citrullinated human vimentin peptide (FAVEAANYQDTIG[Cit]L; listed as Homo sapiens)
20 | *0401 |  |  | *0101 | vimentin 55: human vimentin peptide, not citrullinated (DVRQQYESVAAKNLQ; listed as Homo sapiens)
21 | *0401 | no |  | *0101 | vimentin 42: human vimentin peptide, not citrullinated (FRQDVDNASLARLDL; listed as Homo sapiens)
22 | *0401 | *0404 |  | *0101 | type II collagen 137: human collagen type II peptide, not citrullinated (GEPGIAGFKGEQGPK; listed as Homo sapiens)
23 | *0401 | No |  |  | vimentin 159: citrullinated human vimentin peptide (XKLLEGEESXISLPL; citrullinated; MOD_RES (1)..(1) Citrulline; MOD_RES (10)..(10) Citrulline; listed as Homo sapiens)
24 | *0401 | *0404 | *0405 |  | vimentin 41: human vimentin peptide, not citrullinated (NTLQSFRQDVDNASL; listed as Homo sapiens)
25 |  | *0404 |  |  | type II collagen 257: human collagen type II peptide, not citrullinated (GDRGETGAVGAPGAP; listed as Homo sapiens)
26 | *0401 |  |  | *0101 | vimentin 99: citrullinated human vimentin peptide (VTTST[Cit]TYSLGSAL[Cit]; listed as Homo sapiens)
27 | *0401 |  |  |  | vimentin 71: human vimentin peptide, not citrullinated (FAVEAANYQDTIGRL; listed as Homo sapiens)
28 | no | *0404 |  | *0101 | vimentin 79: human vimentin peptide, not citrullinated (MALDIEIATYRKLLE; listed as Homo sapiens)
29 | *0401 |  |  | *0101 | vimentin 95: citrullinated human vimentin peptide (Y[Cit][Cit]MFGGPGTAS[Cit]PS; listed as Homo sapiens)
30 |  |  |  | *0101 | vimentin 156: citrullinated human vimentin peptide (XEYQDLLNVKMALDI; citrullinated; MOD_RES (1)..(1) Citrulline; listed as Homo sapiens)
31 |  | *0404 |  |  | vimentin 92: human vimentin peptide, not citrullinated (GQVINETSQHHDDLE; listed as Homo sapiens)
32 |  | *0404 |  |  | type II collagen 100: human collagen type II peptide, not citrullinated (PQGARGFPGTPGLPG; listed as Homo sapiens)
33 |  |  | *0405 |  | type II collagen 178: human collagen type II peptide, not citrullinated (PSGFQGLPGPPGPPG; listed as Homo sapiens)
